This is an account of results in the RNAGym collection of RNA variant scans (doi:10.1093/nar/gkz1192).

B1: CPEB3 Ribozyme (parent)
chain: UAACAGGGGGCCACAGCAGAAGCGUUCACGUCGCAGCCCCUGUCAGAUUCUGGUGAAUCUGCGAAUUCUGCUGUAUAUCUC

The variants in this series derive from B1. Briefly: self-cleavage, relative activity (ratio to wild type); higher = more cleavage; in vitro, sequencing. A digest of the protocol: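 Libraries of CPEB3 self-cleaving ribozyme mutants came from rounds of error-prone PCR and carried barcodes, which DNA sequencing matched to variants. In vitro transcription used T7 RNA polymerase at 37°C for 5 hours, with a further 15 min in DNase I before EDTA stopped the reaction; the ribozymes cleaved during both steps. The RNA was reverse transcribed with template switching and sequenced on Illumina. Relative activity is the cleaved/total read fraction of a variant divided by that of the unmutated ribozyme, averaged over three batches with at least 5 reads.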
As to UAACAGGGGGCCACAGCAGAAGUGUUCACGUCGCAGCCCCUGUCAGAUUCUGGUGAAUCUACGAAUUCUGCUGUAUAUCUC [C23U G61A], the self-cleavage is 0.25. As to UAACAGGGGGCCACAGCAGAAGCGUGCACGUCGCAGCCCCUGUCAGAUUCUGGUGAAUCUGCGAAUUCAGCUGUAUAUCUC [U26G U69A], the self-cleavage worked out at 0.21. In the case of UAACAGGGGGCCACGGCAGAAACGUUCACGUCGCAGCCCCUGUCAGAUUCUGGUGAAUCUGCGAAUUCUGCUGUAUAUCUC [A15G G22A], the self-cleavage amounted to 0.22. With UAACAGGGGGCCACAGCAGAAGCGUUAACGUCGCAGCCCCUGUCAGAUUCCGGUGAAUCUGCGAAUUCUGCUGUAUAUCUC [C27A U51C] the figure was 0.21; with UAACAGGGGGCCACUGCAGAAGCGUUCACGCCGCAGCCCCUGUCAGAUUCUGGUGAAUCUGCGAAUUCUGCUGUAUAUCUC [A15U U31C], 0.35. In the case of UAACAGGGGGCCACAGCAGAAGCGUUCGCGUCGCAGCCCCUGUCAGAUUCUGGUGAAUCUGCGAAUUCUGCUGUAUAUUUC [A28G C79U] it was 0.88; in that of UAACCGGGGGCCACAGCAGAAGCGUUCACGUCGCAGCCCCUGUCUGAUUCUGGUGAAUCUGCGAAUUCUGCUGUAUAUCUC [A5C A45U], 0.59. Turning to UAACAGGGGGCCACAGCAGAAGCGUUCACGUCGCAGCCCCUGCCAGUUUCUGGUGAAUCUGCGAAUUCUGCUGUAUAUCUC [U43C A47U], the self-cleavage came to 0.39. As to UAACAGGGGGCCACAGCAGAAGCGUUCACGUUGCAGCCCCUGUCAGAUUCUGGUGAAUCUGCGAAUUCUGCCGUAUAUCUC [C32U U72C], the self-cleavage came to 0.4. With UAACAGGGGGCCACAGCAGAAGCGUUCACGUCGCAGCCCCUGUAAGAUUCAGGUGAAUCUGCGAAUUCUGCUGUAUAUCUC [C44A U51A] the figure was 0.11; with UAACAGGGGGCCACAGUAGAAGCGUUCACGUCGCAACCCCUGUCAGAUUCUGGUGAAUCUGCGAAUUCUGCUGUAUAUCUC [C17U G36A], 0.17; with UAACAGGGGGCCACAGCAGAAGCGUUCAUGUCGCGGCCCCUGUCAGAUUCUGGUGAAUCUGCGAAUUCUGCUGUAUAUCUC [C29U A35G], 1.16. In the case of UAACAGGGGGCCACAGCUGAAGCGUUCACGUCGCAGCCCCUGUCAGAUUCUGGUUAAUCUGCGAAUUCUGCUGUAUAUCUC [A18U G55U] it was 0.41; in that of UAACAGGGGGGCACAGCAGAAGCGUUCACGUCGCAGCCCCUGUCAGAUACUGGUGAAUCUGCGAAUUCUGCUGUAUAUCUC [C11G U49A], 0.6.

As to UAACAGGGGGCCACAGCAGAAGCGUUCACGUCGCAGCCCCUGUCAGAUUCUGGCGAAUCUGCGAUUUCUGCUGUAUAUCUC [U54C A65U], the self-cleavage came out at 0.32. With UAACAGGGGGCCACAGCAGAAGCGUUAACGUCGCAGCCCCUGUCAGAUUCUGGUGAAUCUGCGAAUUCUGCUGUAAAUCUC [C27A U76A] the figure was 0.55; with UAACAGGGGGCCACAGCAGAAGCGUUCACGUCGAGGCCCCUGUCAGAUUCUGGUGAAUCUGCGAAUUCUGCUGUAUAUCUC [C34A A35G], 1.07. On to UAACAUGGGGCCACAGCAGAAGCGUUCACGUCGCAGCCCCUGUCAGAUUCUAGUGAAUCUGCGAAUUCUGCUGUAUAUCUC [G6U G52A], for which the self-cleavage turned out to be 0.47. As to UAACCGGGGGCCACAGCAGAAGCGUUCACGUCGCAGCCCCUGUCAGUUUCUGGUGAAUCUGCGAAUUCUGCUGUAUAUCUC [A5C A47U], the self-cleavage worked out at 0.53.

Regarding UAACAGGGGGCCACAGCAGAAGCGUUCACGUCACAGCCCCUGUCAGAUUCUGGUGAAUCUGUGAAUUCUGCUGUAUAUCUC [G33A C62U], the self-cleavage amounted to 0.11. On to UAACAGGGGGCCACAGCAGAAGCGUUCACGUCGCAGCUCCUGUCAGAUUCUGGUGAAUCUGCGAAUUCCGCUGUAUAUCUC [C38U U69C], for which the self-cleavage turned out to be 0.38. With UAACAGGGGGCAACAGCAGAAGCGUUCACGUCGCAGCCCCUGUCAGAUUCUGGUGAAUCUGCGAAUCCUGCUGUAUAUCUC [C12A U67C] the figure was 0.33; with UAACAGGGGGCCACAUCAGAAGCGUUCACGCCGCAGCCCCUGUCAGAUUCUGGUGAAUCUGCGAAUUCUGCUGUAUAUCUC [G16U U31C], 0.19. Take UAACAGGGGGCCACGGCAGAAGCUUUCACGUCGCAGCCCCUGUCAGAUUCUGGUGAAUCUGCGAAUUCUGCUGUAUAUCUC [A15G G24U]: the self-cleavage turned out to be 0.12.

As to UAACAGGGGGCCACAGCUGAAGCGUUCACGUCGCAGCCCCUGUCAGAUUCUGGUGAACCUGCGAAUUCUGCUGUAUAUCUC [A18U U58C], the self-cleavage turned out to be 0.32. With UAACAGGGGGCCACAGCAGAAGCGUUCACGUCGCAACCCCUGUCAGAUUCUGGUGAAACUGCGAAUUCUGCUGUAUAUCUC [G36A U58A] the figure was 0.13.

Consider UAACAGGGGGCCACAGCAGAAGCGUUCACGUCGCAGCCCCUGUCAGAUUCUGGUGAAUCCGCGAAUCCUGCUGUAUAUCUC [U60C U67C], for which the self-cleavage came out at 0.35. In the case of UAACAGGGGGCCUCAGCAGAAGCGUUCACGUCGCAGCCCCUGUUAGAUUCUGGUGAAUCUGCGAAUUCUGCUGUAUAUCUC [A13U C44U] it was 0.23; in that of UAACAGGGGGCCACAGCAGAAGCGUUCACGUCGCAGCCCCUGUCUGAUUCUGGUUAAUCUGCGAAUUCUGCUGUAUAUCUC [A45U G55U], 0.24; in that of UAACAGGGGGCCACAGCAGAAGCGUUCGCGUCGCAGCCCCUGUCAAAUUCUGGUGAAUCUGCGAAUUCUGCUGUAUAUCUC [A28G G46A], 0.09. UAACAGGGGGCCACAGCAGAGGCGUGCACGUCGCAGCCCCUGUCAGAUUCUGGUGAAUCUGCGAAUUCUGCUGUAUAUCUC [A21G U26G]: the self-cleavage was 0.25.

For UAACAGGGGGCCACAGCAGAAACGUUCACGUCGCAGCCCCUGUCUGAUUCUGGUGAAUCUGCGAAUUCUGCUGUAUAUCUC [G22A A45U], the self-cleavage was 0.11. Take UAACAGGGGGCCACAGCAGAAGCGUUCACGUCGCAGCCCCUGUCAGAUUCUGGUGAAUCUGCGAAUUAUGCUGUAUACCUC [C68A U78C]: the self-cleavage was found to be 0.5.

Turning to UAACAGGGGGCCACAGCAGAAGCGUUCACGUCGCAGCCCCUGUCAGGUUCUGCUGAAUCUGCGAAUUCUGCUGUAUAUCUC [A47G G53C], the self-cleavage was 1.19.
